Assay results as given in publication doi:10.1101/2025.06.24.660003.

Target: human plasma glycoproteins
Assay: far-Western, overlay or dot blot; human or rat plasma diluted 1:10, boiled with LDS sample buffer and 50 mM DTT, separated on 3-8% polyacrylamide gradient gels, transferred to BioTraceNT; GST-SLBR 5 nM in DPBS with 1x Blocking Reagent, 90 min, room temperature; detected with anti-GST

“GST-tagged Siglec-like binding region of Hsa, V370F mutant (from UniProt A8AWU7 220-453) (domain or fragment)” gave a fold decrease in total binding against wild type of 3 fold.
